T1: Recombinant human OX40-His protein (human, UniProt P43489 29-214, limits assumed)
T1 construct: Recombinant antigen protein; also called recombinant human OX-40 protein; human OX-40 protein; not shown: His tag
T1 sequence (looked up): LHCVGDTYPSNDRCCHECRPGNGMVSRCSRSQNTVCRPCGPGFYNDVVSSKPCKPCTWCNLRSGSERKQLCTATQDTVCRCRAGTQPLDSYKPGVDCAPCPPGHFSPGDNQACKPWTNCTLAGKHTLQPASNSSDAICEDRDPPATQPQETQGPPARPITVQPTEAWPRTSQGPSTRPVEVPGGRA


Biological target: T1, Recombinant human OX40-His protein
Test: kinetic ranking (RU, 1:1 binding model), prokaryotically expressed antibody product as ligand, OX40-His as analyte

Kd | koff | kon | Binder
15.6 nM | 0.00511 s⁻¹ | 328000 M⁻¹ s⁻¹ | AH02906, prokaryotically expressed antibody product (back-mutation screening) (Fab, V domains shown) VH: QVQLVQSGAEVKKPGASVKVSCKASGYTFTDYSMHWVKQAPGQGLEWMGWISTETGEPTYADDFKGRFTITLDTSASTAYMELSSLRSEDTAVYYCARVRPWYLAVWGQGTLVTVSS VL: DIQMTQSPSSLSASVGDRVTITCRASQDISNYLNWYQQKPGKAPKLLIYYTSRLYSGVPSRFSGSGSGTDYTLTISSLQPEDIATYFCQQANTLPLTFGGGTKLEIK
14.3 nM | 0.00307 s⁻¹ | 215000 M⁻¹ s⁻¹ | AH02915, prokaryotically expressed antibody product (back-mutation screening) (Fab, V domains shown) VH: QVQLVQSGAEVKKPGASVKVSCKASGYTFTDYSMHWVKQAPGQGLEWMGWISTETGEPTYADDFKGRVTITLDTSASTAYLEISSLRSEDTAVYYCARVRPWYLAVWGQGTLVTVSS VL: DIQMTQSPSSLSASVGDRVTITCRASQDISNYLNWYQQKPGKAPKLLIYYTSRLYSGVPSRFSGSGSGTDFTLTISSLQPEDIATYFCQQANTLPLTFGGGTKLEIK
13.7 nM | 0.00396 s⁻¹ | 288000 M⁻¹ s⁻¹ | AH02917, prokaryotically expressed antibody product (back-mutation screening) (Fab, V domains shown) VH: QVQLVQSGAEVKKPGASVKVSCKASGYTFTDYSMHWVKQAPGQGLEWMGWISTETGEPTYADDFKGRFTITLDTSASTAYMELSSLRSEDTAVYFCARVRPWYLAVWGQGTLVTVSS VL: DIQMTQSPSSLSASVGDRVTITCRASQDISNYLNWYQQKPGKAVKLLIYYTSRLYSGVPSRFSGSGSGTDFTLTISSLQPEDIATYYCQQANTLPLTFGGGTKLEIK
3.35 nM | 0.0013 s⁻¹ | 388000 M⁻¹ s⁻¹ | AH02921, prokaryotically expressed antibody product (back-mutation screening) (Fab, V domains shown) VH: QVQLVQSGPEVKKPGASVKVSCKASGYTFTDYSMHWVRQAPGQGLEWMGWISTETGEPTYADDFKGRFTITLDTSASTAYLEISSLRSEDTAVYFCARVRPWYLTVWGQGTLVTVSS VL: DIQMTQSPSSLSASVGDRVTITCRASQDISNYLNWYQQKPGKAPKLLIYYTSRLYSGVPSRFSGSGSGTDYTLTISSLQPEDIATYFCQQANTLPLTFGGGTKLEIK
12.5 nM | 0.00425 s⁻¹ | 339000 M⁻¹ s⁻¹ | AH02913, prokaryotically expressed antibody product (back-mutation screening) (Fab, V domains shown) VH: QVQLVQSGPEVKKPGASVKVSCKASGYTFTDYSMHWVKQAPGQGLEWMGWISTETGEPTYADDFKGRVTITLDTSASTAYMELSSLRSEDTAVYFCARVRPWYLAVWGQGTLVTVSS VL: DIQMTQSPSSLSASVGDRVTITCRASQDISNYLNWYQQKPGKAVKLLIYYTSRLYSGVPSRFSGSGSGTDYTFTISSLQPEDIATYFCQQANTLPLTFGGGTKLEIK
10.8 nM | 0.00344 s⁻¹ | 317000 M⁻¹ s⁻¹ | AH02923, prokaryotically expressed antibody product (back-mutation screening) (Fab, V domains shown) VH: QVQLVQSGAEVKKPGASVKVSCKASGYTFTDYSMHWVRQAPGQGLEWMGWISTETGEPTYADDFKGRFTFTLDTSASTAYLELSSLRSEDTAVYYCARVRPWYLAVWGQGTLVTVSS VL: DIQMTQSPSSLSASVGDRVTITCRASQDISNYLNWYQQKPGKAVKLLIYYTSRLYSGVPSRFSGSGSGTDYTFTISSLQPEDIATYYCQQANTLPLTFGGGTKLEIK
15.1 nM | 0.00505 s⁻¹ | 335000 M⁻¹ s⁻¹ | AH02919, prokaryotically expressed antibody product (back-mutation screening) (Fab, V domains shown) VH: QVQLVQSGAEVKKPGASVKVSCKASGYTFTDYSMHWVKQAPGQGLEWMGWISTETGEPTYADDFKGRVTITRDTSASTAYLEISSLRSEDTAVYFCARVRPWYLAVWGQGTLVTVSS VL: DIQMTQSPSSLSASVGDRVTITCRASQDISNYLNWYQQKPGKAVKLLIYYTSRLYSGVPSRFSGSGSGTDYTLTISSLQPEDIATYYCQQANTLPLTFGGGTKLEIK
15.7 nM | 0.00384 s⁻¹ | 245000 M⁻¹ s⁻¹ | AH02916, prokaryotically expressed antibody product (back-mutation screening) (Fab, V domains shown) VH: QVQLVQSGAEVKKPGASVKVSCKASGYTFTDYSMHWVKQAPGQGLEWMGWISTETGEPTYADDFKGRVTITLDTSASTAYMELSSLRSEDTAVYYCARVRPWYLAVWGQGTLVTVSS VL: DIQMTQSPSSLSASVGDRVTITCRASQDISNYLNWYQQKPGKAVKLLIYYTSRLYSGVPSRFSGSGSGTDYTFTISSLQPEDIATYFCQQANTLPLTFGGGTKLEIK
14.9 nM | 0.00439 s⁻¹ | 295000 M⁻¹ s⁻¹ | AH02925, prokaryotically expressed antibody product (back-mutation screening) (Fab, V domains shown) VH: QVQLVQSGAEVKKPGASVKVSCKASGYTFTDYSMHWVKQAPGQGLEWMGWISTETGEPTYADDFKGRVTITRDTSASTAYLEISSLRSEDTAVYFCARVRPWYLAVWGQGTLVTVSS VL: DIQMTQSPSSLSASVGDRVTITCRASQDISNYLNWYQQKPGKAVKLLIYYTSRLYSGVPSRFSGSGSGTDFTLTISSLQPEDIATYYCQQANTLPLTFGGGTKLEIK
2.37 nM | 0.000534 s⁻¹ | 225000 M⁻¹ s⁻¹ | AH02922, prokaryotically expressed antibody product (back-mutation screening) (Fab, V domains shown) VH: QVQLVQSGAEVKKPGASVKISCKASGYTFTDYSMHWVRQAPGQRLEWMGWISTETGEPTYADDFKGRVTITRDTSASTAYMELSSLRSEDTAVYYCARVRPWYLVVWGQGTLVTVSS VL: DIQMTQSPSSLSASVGDRVTITCRASQDISNYLNWYQQKPGKAPKLLIYYTSRLYSGVPSRFSGSGSGTDYTLTISSLQPEDIATYYCQQANTLPLTFGGGTKLEIK

Biological target: T1, Recombinant human OX40-His protein
Test: SPR (Biacore 8K), OX40-HIS coupled to chip, antibody as analyte, 1:1 binding model
Method: The chip surface was equilibrated with HBS-EP buffer at a flow rate of 10 μl/min for 5 min, and then a 1:1 mixture of “NHS+EDC” was injected at a flow rate of 10 μl/min for 100 sec to activate the chip. The antigen protein (OX40-HIS) diluted in 10 mM sodium acetate buffer was injected for about 180 sec at a flow rate of 10 μl/min for coupling, and finally ethanolamine was injected for 200 sec at a flow rate of 10 μl/min to block the surface.
Three pre-cycles were performed with the HBS-EP buffer as a sample to balance the chip to stabilize the baseline. A low concentration of antibody was injected at a flow rate of 30 μl/min for 200 sec, to allow the antigen to bind to the antibody, and then the buffer was injected at a flow rate of 30 μl/min for 400 sec for dissociation. 10 mM Gly-HCl pH2.0 was injected three times each for 30 sec at a flow rate of 30 μl/min for regeneration, to complete one cycle.
The antibody concentration was changed to carry out the cycle for measurement at a next gradient concentration until all gradient concentrations (2.5 nM, 5 nM, 10 nM, 20 nM, 40 nM, and […]) and the replicate (such as 20 nM) were tested. The experimental data was double subtracted (minus the background values of the control channel and zero concentration), and fitted to the “1:1 binding” model in the Biacore 8K evaluation software. Biacore 8K was used to determine the affinity of the antibody to the OX40-HIS recombinant protein.

Kd | koff | kon | Binder
2.83 nM | 0.00116 s⁻¹ | 408000 M⁻¹ s⁻¹ | AH02906 humanized anti-human OX40 monoclonal antibody (recombinant human IgG1/kappa) (antibody, V domains shown) VH: QVQLVQSGAEVKKPGASVKVSCKASGYTFTDYSMHWVKQAPGQGLEWMGWISTETGEPTYADDFKGRFTITLDTSASTAYMELSSLRSEDTAVYYCARVRPWYLAVWGQGTLVTVSS VL: DIQMTQSPSSLSASVGDRVTITCRASQDISNYLNWYQQKPGKAPKLLIYYTSRLYSGVPSRFSGSGSGTDYTLTISSLQPEDIATYFCQQANTLPLTFGGGTKLEIK
2.6 nM | 0.00106 s⁻¹ | 407000 M⁻¹ s⁻¹ | AH02917 humanized anti-human OX40 monoclonal antibody (recombinant human IgG1/kappa) (antibody, V domains shown) VH: QVQLVQSGAEVKKPGASVKVSCKASGYTFTDYSMHWVKQAPGQGLEWMGWISTETGEPTYADDFKGRFTITLDTSASTAYMELSSLRSEDTAVYFCARVRPWYLAVWGQGTLVTVSS VL: DIQMTQSPSSLSASVGDRVTITCRASQDISNYLNWYQQKPGKAVKLLIYYTSRLYSGVPSRFSGSGSGTDFTLTISSLQPEDIATYYCQQANTLPLTFGGGTKLEIK
1.36 nM | 0.00029 s⁻¹ | 213000 M⁻¹ s⁻¹ | AH02922 humanized anti-human OX40 monoclonal antibody (recombinant human IgG1/kappa) (antibody, V domains shown) VH: QVQLVQSGAEVKKPGASVKISCKASGYTFTDYSMHWVRQAPGQRLEWMGWISTETGEPTYADDFKGRVTITRDTSASTAYMELSSLRSEDTAVYYCARVRPWYLVVWGQGTLVTVSS VL: DIQMTQSPSSLSASVGDRVTITCRASQDISNYLNWYQQKPGKAPKLLIYYTSRLYSGVPSRFSGSGSGTDYTLTISSLQPEDIATYYCQQANTLPLTFGGGTKLEIK
2.22 nM | 0.00115 s⁻¹ | 520000 M⁻¹ s⁻¹ | AH02925 humanized anti-human OX40 monoclonal antibody (recombinant human IgG1/kappa) (antibody, V domains shown) VH: QVQLVQSGAEVKKPGASVKVSCKASGYTFTDYSMHWVKQAPGQGLEWMGWISTETGEPTYADDFKGRVTITRDTSASTAYLEISSLRSEDTAVYFCARVRPWYLAVWGQGTLVTVSS VL: DIQMTQSPSSLSASVGDRVTITCRASQDISNYLNWYQQKPGKAVKLLIYYTSRLYSGVPSRFSGSGSGTDFTLTISSLQPEDIATYYCQQANTLPLTFGGGTKLEIK
3 nM | 0.00142 s⁻¹ | 472000 M⁻¹ s⁻¹ | AH02915 humanized anti-human OX40 monoclonal antibody (recombinant human IgG1/kappa) (antibody, V domains shown) VH: QVQLVQSGAEVKKPGASVKVSCKASGYTFTDYSMHWVKQAPGQGLEWMGWISTETGEPTYADDFKGRVTITLDTSASTAYLEISSLRSEDTAVYYCARVRPWYLAVWGQGTLVTVSS VL: DIQMTQSPSSLSASVGDRVTITCRASQDISNYLNWYQQKPGKAPKLLIYYTSRLYSGVPSRFSGSGSGTDFTLTISSLQPEDIATYFCQQANTLPLTFGGGTKLEIK
